These results are taken from PMC11358308, “Structure-based humanization of a therapeutic antibody for multiple myeloma” (Journal of Molecular Medicine (Berlin, Germany), 2024).

Common to all, as to settings: both partners purified
The target of test [1] is T1, human B-cell maturation antigen (BCMA), extracellular domain (Homo sapiens (Human)., UniProt Q02223).
T1 construct: B-cell maturation antigen (BCMA), human; soluble form used as mobile phase in SPR and in the Fab:BCMA crystals; holds the DxL loop (L17) and H19; also called hBCMA; human BCMA
T1 sequence (Q02223 1-54): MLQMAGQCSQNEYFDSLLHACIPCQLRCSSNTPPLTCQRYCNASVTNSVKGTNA
Description: SPR; ProteOn XPR36; whole IgG (15 µg/ml) immobilised on GLH chip by amine chemistry; BCMA as mobile phase in PBS with 0.005% Tween-20 (0.4-90 nM hBCMA, 2.7 nM-1 µM cBCMA); Kd from kon and koff, single-site model. For orientation: In SPR one partner is held on a chip, and binding of the other changes the refractive index at the surface.

A further test addresses T2, cynomolgus BCMA (Macaca fascicularis, UniProt A0A2K5UD97).
T2 construct: B-cell maturation antigen (BCMA), cynomolgus monkey (macaque); differs from human BCMA at three positions: alanine 20 is aspartic acid, isoleucine 22 is lysine, asparagine 31 of hBCMA is deleted; also called cynoBCMA; cBCMA
The description is as above.

Test [2] deals with T1, human B-cell maturation antigen (BCMA), …. Description: crystal structure; Fab:BCMA complexes; 21% PEG 3350, 0.1 M BisTris pH 6.5, 5 mM CuCl2, 20 °C; molecular replacement.

Residue numbers refer to the chain shown, from its start. Names may count otherwise.

B1: J22.9-H, humanized IgG (all humanizing substitutions in VH and VL except A46L in VL) (antibody, V domains shown)
VH: EVQLVESGGGLVQPGGSLRLSCAASGFTFSRYWMSWVRQAPGKGLVWVGEINPDSSTINYAPSLKDKFTISRDNAKNTLYLQMNSLRAEDTAVYYCASLYYDYGDAMDYWGQGTLVTVSS
VL: EIVMTQSPATLSVSPGERATLSCKASQSVDSNVAWYQQKPGQAPRALIYSASLRFSGIPARFSGSGSGTEFTLTISSLQSEDFAVYYCQQYNNYPLTFGAGTKLELK
notes: humanized VH (hVH, 16 changes against the mouse VH); human IgG1 heavy chain constant region, as told for J22.9-xi; Fab light chain in PDB 8QY9; whole IgG in SPR and FACS; source: expressed, purified
The term Kd denotes the concentration at which binding is half-saturated. Take B1: in test [1], the Kd is 15 nM. Further, the binding result with cynomolgus BCMA is recorded as “binds”.

B2: J22.9-FSY, humanized and CDR-optimized IgG (antibody, V domains shown)
VH: B1 VH with M34F, D54S, M107Y
VL: B1 VL with D30E
notes: as the VH of m5 (J22.9-H); human IgG1 heavy chain constant region, as told for J22.9-xi; as the light chain of m5 (J22.9-H; no structure of this variant; source: expressed, purified)
Turning to B2, the binding result (in test [1]; in the test with cynomolgus BCMA) was “binds” throughout.

B3: J22.9-ISY, humanized and CDR-optimized IgG (antibody, V domains shown)
VH: B1 VH with M34I, D54S, M107Y
VL: B1 VL with D30E
notes: as the VH of m5 (J22.9-H; human IgG1 heavy chain constant region, as told for J22.9-xi; source: expressed, purified)
B3: the binding result (in test [1]; in the test with cynomolgus BCMA) was “binds” in each case.

B4: J22.9-ISY Fab fragment (Fab, V domains shown)
VH: B1 VH with M34I, D54S, M107Y
VL: B1 VL with D30E
notes: Fab heavy chain; as the light chain of m7 (light chain of J22.9-H with D30E); Crystallised in complex with BCMA
B4: the binding result in test [2] is given as “binds”.

B5: J22.9-xi, chimaeric mouse/human IgG (antibody, V domains shown)
VH: QVQLQQSGGGLVQPGGSLKLSCAASGIDFSRYWMSWVRRAPGKGLEWIGEINPDSSTINYAPSLKDKFIISRDNAKNTLYLQMSKVRSEDTALYYCASLYYDYGDAMDYWGQGTSVTVSS
VL: DIVMTQSQRFMTTSVGDRVSVTCKASQSVDSNVAWYQQKPRQSPKALIFSASLRFSGVPARFTGSGSGTDFTLTISNLQSEDLAEYFCQQYNNYPLTFGAGTKLELK
notes: mouse VH of J22.9 (mVH); mouse VL of J22.9 (mVL); Fab light chain in PDB 4ZFO; IgG1; whole IgG immobilised in SPR
In turn, B5 registered a Kd in test [1] of 0.28 nM. The binding result with cynomolgus BCMA was “binds”.
